Reference: IntAct's records for PubMed 25332407

B1: Nuclear distribution protein nudE homolog 1 (Homo sapiens), Q9NXR1 (parent)
chain: MEDSGKTFSSEEEEANYWKDLAMTYKQRAENTQEELREFQEGSREYEAELETQLQQIETRNRDLLSENNRLRMELETIKEKFEVQHSEGYRQISALEDDLAQTKAIKDQLQKYIRELEQANDDLERAKRATIMSLEDFEQRLNQAIERNAFLESELDEKENLLESVQRLKDEARDLRQELAVQQKQEKPRTPMPSSVEAERTDTAVQATGSVPSTPIAHRGPSSSLNTPGSFRRGLDDSTGGTPLTPAARISALNIVGDLLRKVGALESKLASCRNLVYDQSPNRTGGPASGRSSKNRDGGERRPSSTSVPLGDKGLDTSCRWLSKSTTRSSSSC

Variants of: B1
Conditions: with 1433e_human YWHAE

Variant	effect of a mutation on the interaction
S214A	with no effect
S214F	decreasing interaction strength
T215A	decreasing interaction strength
R234C	with no effect
